Results as given in CN112125972A (SINOCELLTECH LTD, dated 2020).

How the values were obtained:
HPV16 L1 VLP蛋白 = biological target: T1, HPV16 L1 VLP蛋白 (Human papillomavirus type 16); experiment: indirect ELISA, VLP coated at 2 μg/mL, antibody at 10 ng/mL
T1 construct: Intact virus-like particle of L1; also called HPV16 VLP; HPV16 VLP蛋白

HPV35 VLP [1] = biological target: T2, HPV35 VLP (Human papillomavirus type 35, UniProt P27232 1-502); experiment: as above
T2 construct: also called HPV35完整VLP蛋白
T2 sequence: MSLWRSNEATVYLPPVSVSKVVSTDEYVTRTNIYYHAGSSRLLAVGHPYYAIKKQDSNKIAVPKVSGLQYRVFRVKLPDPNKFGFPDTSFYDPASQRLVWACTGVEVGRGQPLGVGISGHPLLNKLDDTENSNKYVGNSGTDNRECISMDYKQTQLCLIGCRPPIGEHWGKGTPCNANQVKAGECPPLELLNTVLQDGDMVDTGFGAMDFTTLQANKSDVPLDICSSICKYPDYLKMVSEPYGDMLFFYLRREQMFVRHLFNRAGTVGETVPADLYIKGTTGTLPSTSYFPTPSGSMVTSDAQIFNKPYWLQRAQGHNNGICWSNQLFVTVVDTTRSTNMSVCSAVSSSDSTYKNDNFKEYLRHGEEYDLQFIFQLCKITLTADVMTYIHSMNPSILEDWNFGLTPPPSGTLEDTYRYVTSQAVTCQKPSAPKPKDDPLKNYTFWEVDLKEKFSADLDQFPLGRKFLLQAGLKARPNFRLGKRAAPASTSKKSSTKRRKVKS

HPV6 VLP = biological target: T3, HPV6 VLP (Human papillomavirus type 6, UniProt P69899 1-500); experiment: as above
T3 construct: also called HPV6完整VLP蛋白
T3 sequence: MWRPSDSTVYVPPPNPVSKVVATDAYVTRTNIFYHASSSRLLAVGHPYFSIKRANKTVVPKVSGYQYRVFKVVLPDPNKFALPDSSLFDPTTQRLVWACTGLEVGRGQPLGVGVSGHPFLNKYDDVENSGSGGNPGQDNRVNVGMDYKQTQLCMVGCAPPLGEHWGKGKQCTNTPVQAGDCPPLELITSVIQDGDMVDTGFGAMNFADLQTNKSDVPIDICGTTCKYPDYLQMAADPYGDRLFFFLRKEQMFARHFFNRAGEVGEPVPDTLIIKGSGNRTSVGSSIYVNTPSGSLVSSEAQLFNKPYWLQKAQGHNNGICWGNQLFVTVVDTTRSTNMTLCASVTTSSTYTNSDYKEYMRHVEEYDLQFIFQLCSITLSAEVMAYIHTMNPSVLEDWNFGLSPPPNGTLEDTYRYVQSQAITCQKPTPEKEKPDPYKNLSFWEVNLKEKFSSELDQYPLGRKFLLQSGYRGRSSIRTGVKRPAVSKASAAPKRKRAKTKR

HPV18 VLP = biological target: T4, HPV18 VLP (Human papillomavirus type 18, UniProt P06794 62-568); experiment: double-antibody sandwich ELISA, R001 as capture and HRP-R001 as detection, mixture of HPV types
T4 construct: also called HPV18完整VLP蛋白
T4 sequence: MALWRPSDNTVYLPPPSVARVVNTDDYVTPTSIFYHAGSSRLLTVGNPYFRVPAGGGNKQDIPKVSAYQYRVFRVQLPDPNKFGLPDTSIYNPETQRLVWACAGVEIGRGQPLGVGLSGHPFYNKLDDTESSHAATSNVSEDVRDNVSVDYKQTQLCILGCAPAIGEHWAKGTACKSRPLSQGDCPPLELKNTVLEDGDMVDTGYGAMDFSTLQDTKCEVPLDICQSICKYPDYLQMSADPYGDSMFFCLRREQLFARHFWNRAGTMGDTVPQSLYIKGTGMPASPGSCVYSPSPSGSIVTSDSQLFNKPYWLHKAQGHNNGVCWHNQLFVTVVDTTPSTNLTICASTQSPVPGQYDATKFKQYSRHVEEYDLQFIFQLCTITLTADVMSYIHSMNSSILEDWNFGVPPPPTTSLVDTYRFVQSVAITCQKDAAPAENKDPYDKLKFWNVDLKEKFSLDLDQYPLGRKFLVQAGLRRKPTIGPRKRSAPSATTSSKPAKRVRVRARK

HPV11 VLP = biological target: T5, HPV11 VLP (Human papillomavirus type 11, UniProt P04012 1-501); experiment: as above
T5 construct: also called HPV11完整VLP蛋白
T5 sequence: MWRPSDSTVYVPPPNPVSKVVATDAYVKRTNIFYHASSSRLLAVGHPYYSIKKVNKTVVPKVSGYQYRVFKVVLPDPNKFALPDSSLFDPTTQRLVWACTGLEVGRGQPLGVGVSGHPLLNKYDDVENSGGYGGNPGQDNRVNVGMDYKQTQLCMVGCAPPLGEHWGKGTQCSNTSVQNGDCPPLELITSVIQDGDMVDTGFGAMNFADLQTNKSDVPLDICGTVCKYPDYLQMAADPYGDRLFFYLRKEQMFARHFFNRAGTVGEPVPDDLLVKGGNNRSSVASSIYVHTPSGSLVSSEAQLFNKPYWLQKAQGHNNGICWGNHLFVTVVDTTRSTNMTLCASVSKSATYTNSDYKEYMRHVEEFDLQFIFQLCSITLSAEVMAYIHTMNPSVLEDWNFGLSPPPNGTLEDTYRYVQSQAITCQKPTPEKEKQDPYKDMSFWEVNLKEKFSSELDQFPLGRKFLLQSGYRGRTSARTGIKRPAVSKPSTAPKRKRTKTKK

HPV35 VLP [2] = biological target: T2, HPV35 VLP; experiment: as above

B1: HPV 16 R001 (antibody, V domains shown)
VH: QSVKESEGRLVTPGTPLTLTCTASGFTMSRYHMTWVRQAPGKGLEWIGIIYARNSDTYYANWAKGRFTISKTSTTVDLKITSPTIEDTATYFCARVDSDSSGAFDRLDLWGQGTLVTVSS
VL: DPMLTQTAASVEVAVGGTVTIKCQASQSIGGYLSWYQQKPGQRPKLLIYRASTLASGVPSRFKGSGSGTEYTLTFSGVECADAAAYYCQQGYTSSDINNAFGGGTEVVVK
notes: An HRP-labelled form served as detection antibody in the sandwich ELISA; also called HPV16.001; 单克隆抗体HPV 16 R001
OD450-blank (HPV16 L1 VLP蛋白): 2.53 OD450
OD450-blank (HPV35 VLP [1]): 0.001 OD450
OD450-blank (HPV6 VLP): 0.004 OD450
binding result (HPV18 VLP): no binding (tested: 50ng/mL，25ng/mL，12.5ng/mL)
binding result (HPV11 VLP): no binding (tested: 50ng/mL，25ng/mL，12.5ng/mL)
binding result (HPV35 VLP [2]): no binding (tested: 50ng/mL，25ng/mL，12.5ng/mL)
